Measurements reported in patent publication US20230050773A1 (AstraZeneca / MedImmune, published 2023).

B1: NB0919 (antibody, V domains shown)
VH: QVQLQESGPGLVKPSDTLSLTCTVSGFSFSTDYWWSWIRQPPGKGLEWIGYIYVGTSGDTYYNPSLKSRVTISVDTSKNQFSLKLSSVTAADTAVYYCAGADNPYDYFNLWGQGTLVTVSS
VL: DIQMTQSPSSLSASVGDRVTITCRASETISGYLNWYQQKPGKAPKLLIYRASSLQSGVPSRFSGSGSGTDFTLTISSLQPEDFATYYCQQGYSYSDTDNVFGGGTKVEIK
notes: Humanized variant of B7 by CDR grafting; also called Clone 919
B2: NB0937 (antibody, V domains shown)
VH: EVQLVESGGGLVQPGGSLRLSCAASGFSFSTDYWMSWVRQAPGKGLEWVSSIYVGTSGDTYYADSVKGRFTISRDNSKNTLYLQMDSLRAEDTAIYYCAGADNPYDYFNLWGQGTLVTVS
VL: DIQMTQSPSSVSASVGDRVTITCRASETISGYLAWYQQKPGKAPKLLIYRASSLESGVPSRFSGSGSGTEFTLTISSLQPDDFATYYCQQGYSYSDTDNVFGGGTKVEIK
notes: Humanized variant of B7 by CDR grafting; also called Clone 937
B3: NB0920 (antibody, V domains shown)
VH: QVQLQESGPGLVKPSDTLSLTCTVSGFSFSTDYWWSWIRQPPGKGLEWIGYIYVGTSGDTYYNPSLKSRVTISVDTSKNQFSLKLSSVTAADTAVYYCAGADNPYDYFNLWGQGTLVTVSS
VL: DIQMTQSPSSLSASVGDRVTITCRASETISGYLAWYQQKPGKVPKLLIYRASTLQSGVPSRFSGSGSGTDFTLTISSLQPEDVATYYCQQGYSYSDTDNVFGGGTKVEIK
notes: Humanized variant of B7 by CDR grafting; also called Clone 920
B4: NB0938 (antibody, V domains shown)
VH: EVQLVESGGGLVQPGGSLRLSCAASGFSFSTDYWMSWVRQAPGKGLEWVSSIYVGTSGDTYYADSVKGRFTISRDNSKNTLYLQMDSLRAEDTAIYYCAGADNPYDYFNLWGQGTLVTVS
VL: DIQMTQSPSSLSASVGDRVTITCRASETISGYLNWYQQKPGKAPKLLIYRASSLQSGVPSRFSGSGSGTDFTLTISSLQPEDFATYYCQQGYSYSDTDNVFGGGTKVEIK
notes: Humanized variant of B7 by CDR grafting; also called Clone 938

Key:
[1] = biological target: T1, recombinant human LIF (Leukemia Inhibitory Factor) (human, UniProt P15018 23-202); test: cell-based or functional assay
[2] = biological target: T1, recombinant human LIF (Leukemia …); test: ELISA, coated recombinant human LIF, anti-human Fc HRP detection
Experimental: Recombinant human LIF was coated on maxisorp plates overnight at 4° C. The next day, plates were blocked with casein blocking buffer for 1 hour at 37° C. Titrations of each antibody were added to the plates and allowed to bind for 1 hour at room temperature. Plates were washed 4× with PBST followed by incubation with an HRP conjugated anti-human Fc secondary for 30 minutes at RT. Plates were then washed again with 4×PBST and then developed using TMB substrate and 1M HCl.

[3] = biological target: T1, recombinant human LIF (Leukemia …); test: BLI (Octet), antibody on anti-human Fc biosensors, human LIF in solution
Experimental: Affinities were determined using biolayer interferometry on the Octet platform. Anti-human Fc biosensors were used to load chimeric B7 and humanized variants, and titrations of recombinant human LIF (200 nM→0 nM) were associated for 180 seconds followed by a 300 second dissociation step. Affinity measurements are recorded in Table 3.

[4] = biological target: T1, recombinant human LIF (Leukemia …); test: LIF:LIFR blocking ELISA, coated human LIFR, biotinylated human LIF premixed with antibody
Experimental: Recombinant human LIFR was coated on maxisorp plates overnight at 4 C. The next day, plates were blocked with casein blocking buffer for 1 hr at 37 C. During this period, titrations of each antibody were mixed with biotinylated recombinant human LIF. Following blocking, the antibody/antigen premix was added to the plates and allowed to incubate for 1 hr at RT. Plates were then washed with 4×PBST and an HRP conjugated avidin secondary reagent was added for 30 min at room temperature. Plates were washed again with 4×PBST and then developed using TMB substrate and 1M HCl.

T1 sequence (P15018 23-202 limits assumed, form in doubt): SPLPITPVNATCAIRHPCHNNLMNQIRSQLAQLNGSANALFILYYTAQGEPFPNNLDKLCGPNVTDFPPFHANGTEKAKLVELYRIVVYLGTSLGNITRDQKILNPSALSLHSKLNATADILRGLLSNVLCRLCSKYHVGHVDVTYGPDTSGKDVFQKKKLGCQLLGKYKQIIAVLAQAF

| Binder | pSTAT3 inhibition assay IC50 (nM) [1] | EC50 [2] | Kd [3] | IC50 [4] |
| --- | --- | --- | --- | --- |
| B1 | 52.7 nM | 0.17 nM | 19.6 nM |  |
| B2 | 7.22 nM | 0.08 nM | 5.02 nM | 16.6 nM |
| B3 | 38.7 nM | 0.12 nM | 9.97 nM |  |
| B4 | 11 nM | 0.13 nM | 10.6 nM | 24.4 nM |
